The values below come from patent publication US20070154905A1 (YEDA RESEARCH AND DEVELOPMENT, published 2007).

The chains are these.
B2: MORT-1 protein (full-length) (other)
chain: VNQAPECRFGGGILGPLGKRRDLARASEPRTEGARRAGPQPRPLADPAMDPFLVLLHSVSSSLSSSELTELKFLCLGRVVKRKLERVQSGLDLFSMLLEQNDLEPGHTELLRELLASLRRHDLLRRVDDFEAGAAAGAAPGEEDLCAAFNVICDNVGKDWRRLARQLKVSDTKIDSIEDRYPRNLTERVRESLRIWKNTEKENATVAHLVGALRSCQMNLVADLVQEVQQARDLQNRSGAMSPMSWNSDASTSEAS
notes: Full-length construct; also called HF1; FADD
B4: MACHα1 mutant in which the catalytic cysteine Cys360 is replaced by Ser (enzyme)
chain: MDFSRNLYDIGEQLDSEDLASLKFLSLDYIPQRKQEPIKDALMLFQRLQEKRMLEESNLSFLKELLFRINRLDLLITYLNTRKEEMERELQTPGRAQISAYRVMLYQISEEVSRSELRSFKFLLQEEISKCKLDDDMNLLDIFIEMEKRVILGEGKLDILKRVCAQINKSLLKIINDYEEFSKERSSSLEGSPDEFSNGEELCGVMTISDSPREQDSESQTLDKVYQMKSKPRGYCLIINNHNFAKAREKVPKLHSIRDRNGTHLDAGALTTTFEELHFEIKPHDDCTVEQIYEILKIYQLMDHSNMDCFICCILSHGDKGIIYGTDGQEAPIYELTSQFTGLKCPSLAGKPKVFFIQASQGDNYQKGIPVETDSEEQPYLEMDLSSPQTRYIPDEADFLLGMATVNNCVSYRNPAEGTWYIQSLCQSLRERCPRGDDILTILTEVNYEVSNKDDKKNMGKQMPQPTFTLRKKLVFPSD
notes: Gal4 fusion in two-hybrid tests; also called MACHα1 (C360S); MACHα (C360S)
B5: MACHβ1 (ORF-B of MACH) (other)
chain: MDFSRNLYDIGEQLDSEDLASLKFLSLDYIPQRKQEPIKDALMLFQRLQEKRMLEESNLSFLKELLFRINRLDLLITYLNTRKEEMERELQTPGRAQISAYRVMLYQISEEVSRSELRSFKFLLQEEISKCKLDDDMNLLDIFIEMEKRVILGEGKLDILKRVCAQINKSLLKIINDYEEFSKERSSSLEGSPDEFSNDFGQSLPNEKQTSGILSDHQQSQFCKSTGESAQTSQH
notes: Gal4 fusion in two-hybrid tests; also called MACH B; MACH ORF-B
B6: intracellular domain of human p55 TNF receptor (residues 206-426) (receptor, UniProt P19438 235-455, looked up)
chain: RYQRWKSKLYSIVCGKSTPEKEGELEGTTTKPLAPNPSFSPTPGFTPTLGFSPVPSSTFTSSSTYTPGDCPNFAAPRREVAPPYQGADPILATALASDPIPNPLQKWEDSAHKPQSLDTDDPATLYAVVENVPPLRWKEFVRRLGLSDHEIDRLELQNGRCLREAQYSMLATWRRRTPRREATLELLGRVLRDMDLLGCLEDIEEALCGPAALPPAPSLLR
notes: range 206-426; Gal4 fusion in two-hybrid tests; also called p55-IC; p55 IC

Data set [1] deals with the molecule itself. The data set can be described thus: yeast two-hybrid, β-galactosidase test (FIG. 1).
In data set [2] the target is T1, MORT-1 fragment, amino acids 130-245 (C-terminal part with the death domain homology region) (human, UniProt Q13158 82-197).
T1 construct: Gal4 fusion in two-hybrid tests; expressed untagged in HeLa cells for the cytotoxicity test; also called MORT-1 DD; MORT-1 dd
T1 sequence: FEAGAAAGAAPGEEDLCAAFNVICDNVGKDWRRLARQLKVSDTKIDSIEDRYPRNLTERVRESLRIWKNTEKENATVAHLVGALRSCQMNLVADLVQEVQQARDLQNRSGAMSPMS
The data set can be described thus: yeast two-hybrid, β-galactosidase test (FIG. 1).

Data set [3] deals with T2, mouse Fas-IC with replacement mutation I225N (mouse, UniProt P25446 187-327).
T2 construct: domain: intracellular domain; The text calls the change 'Ile to Leu' but labels it I225N; also called lpr^eg mutation
T2 sequence (looked up): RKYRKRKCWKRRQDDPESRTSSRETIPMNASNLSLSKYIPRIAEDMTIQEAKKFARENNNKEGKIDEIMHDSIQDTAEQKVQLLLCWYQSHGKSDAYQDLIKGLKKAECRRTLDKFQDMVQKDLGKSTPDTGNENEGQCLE
The data set can be described thus: yeast two-hybrid, β-galactosidase test (FIG. 1).

Data set [4] concerns the target T3, mouse Fas-IC with replacement mutation I225A (mouse, UniProt P25446 187-327).
T3 construct: domain: intracellular domain
T3 sequence (looked up): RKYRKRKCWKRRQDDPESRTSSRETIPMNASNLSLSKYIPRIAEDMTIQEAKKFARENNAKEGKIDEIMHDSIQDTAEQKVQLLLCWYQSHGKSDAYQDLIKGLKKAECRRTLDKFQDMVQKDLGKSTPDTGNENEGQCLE
Put plainly: yeast two-hybrid, β-galactosidase test (FIG. 1).

The target in data set [5] is B6. The data set can be described thus: yeast two-hybrid, β-galactosidase test (FIG. 1).
The data set “MACHβ1 (ORF-B of MACH)” has as its target B5. Put plainly: yeast two-hybrid, β-galactosidase filter assay. Here is the method:
(§1) The yeast two-hybrid test was further applied to evaluate the specificity of binding of MACH to MORT-1, in particular, to define the region in MORT-1 to which MACH binds, as well as to determine which of the MACH ORFs interacts with MORT-1, the procedures being as set forth herein above in Examples 1 and 2. Briefly, various MORT-1 and MACH constructs were prepared for testing the interaction of the proteins encoded by the Gal4 DNA-binding domain and activation domain constructs within transfected SFY526 yeast cells as assessed by the β-galactosidase expression filter assay. The DNA-binding domain constructs were prepared in pGBT9 vectors and the activation domain constructs were prepared in pGAD-GM vectors. For the activation domain constructs, the full-length MACH cDNA was used (MACH), as was a construct encoding only the ORF-B (MACH B) region. Control activation domain constructs were those containing the full-length MORT-1 coding sequence (MORT 1, positive control) and those having no inserts, i.e., “empty” vectors (pGAD-GM). […] Control DNA-binding domain constructs, which were constructed to determine also the specificity of the MACH binding, included constructs encoding lamin (Lamin), residues 287-461 of the intracellular domain of the human p75 TNF-R (human p75 IC), cyclic D (cycD), SNF1, residues 206-426 of the intracellular domain of the human p55 TNF-R (human p55 IC), the ‘death domain’ region of the intracellular domain of the human Fas-R (human Fas DD), residues 216-277 of the intracellular domain of the human CD40 (human CD40 IC), vectors without insert or “empty” pGBT9 vectors (pGBT9, negative control), and a construct encoding the ORF-B region of MACH (MACH B). In the assay, the development of color was determined, where the greater the color development, the greater the interaction between the constructs encoded by the DNA-binding domain and activation domain; Color development was depicted by symbols, where “+++” and “+” indicate the development of a strong color within 30 and 90 min. of the assay, respectively, and “−−−” indicates the lack of development of color within 24 hrs. of the assay. In cases where interactions were not tested, no symbol was indicated.

Data set [6] deals with the molecule itself. The data set can be described thus: yeast two-hybrid, β-galactosidase filter assay. As for the experimental part:
as §1

For data set [7], the target named is T4, 'empty' Gal4 DNA-binding-domain vector pGBT9 (UniProt P04386 1-147).
T4 construct: Negative control
T4 sequence (P04386 1-147 limits assumed): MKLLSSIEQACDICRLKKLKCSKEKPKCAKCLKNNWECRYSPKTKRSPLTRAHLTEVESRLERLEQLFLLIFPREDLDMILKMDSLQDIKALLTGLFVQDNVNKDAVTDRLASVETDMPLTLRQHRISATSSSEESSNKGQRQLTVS
Put plainly: yeast two-hybrid, β-galactosidase test (FIG. 1); empty pGBT9 is named as a negative control in paragraph 206.

The target of data set [8] is B2. Put plainly: yeast two-hybrid, β-galactosidase filter assay. Here is the method: as §1
The data set “yeast two-hybrid” deals with the molecule itself. The data set can be described thus: yeast two-hybrid. Here is the method: (§2) In FIG. 5, there is shown the results of the interaction of MORT-1 and MACH within transfected yeast cells. Briefly, MORT-1 and MACHβ1 and their deletion constructs, as well as MACHα1, a MACHα1 mutant in which the catalytic cysteine Cys₃₆₀ is replaced by Ser (MACHα1 (C360S)) and the intracellular domain of human FAS-R (Fas-IC), were expressed within transfected SFY526 yeast in Gal4 DNA binding domain and activation domain constructs (pGBT9 and pGAD-GH). Their interaction was assessed by a β-galactosidase expression filter assay as described in Boldin et al (1995b). The results are presented in terms of the time required for the development of strong color. […] None of the inserts examined interacted with a number of tested negative controls, including the intracellular domains of human p55 TNF receptor, p75 TNF receptor and CD40, and lamin, cyclin D and ‘empty’ Gal4 vectors. MACHβ1 was cloned by two hybrid screening of a Gal4 AD-tagged human B cell library (Durfee et al, 1993) for proteins that bind to MORT-1, using the HF7c Yeast reporter strain. Except where otherwise indicated, all experimental procedures for the findings presented are as described above (see also Boldin et al, 1995). […] MACHβ1 also self-associated in the transfected yeast. […] Expression of MACHβ1 molecules in mammalian cells yielded a 34 kDa protein that bound to MORT-1 molecules co-expressed with it. It was also able to bind to a GST-MORT-1 fusion protein in vitro.

Data set [9] deals with T5, MACHα1 (human, UniProt Q14790 1-479).
T5 construct: Gal4 fusion in two-hybrid tests; also called wild-type MACHα1
The data set can be described thus: yeast two-hybrid. Here is the method: as §2

For data set [10], the target named is B4. Put plainly: yeast two-hybrid. Here is the method: as §2
Data set [11] addresses B6. Put plainly: yeast two-hybrid, β-gal filter assay (FIG. 5).
The target in data set [12] is T5, MACHα1. The data set can be described thus: yeast two-hybrid, β-gal filter assay (FIG. 5).
Data set [13] concerns the target B4. The data set can be described thus: yeast two-hybrid, β-gal filter assay (FIG. 5).

B1: MORT-1 fragment, amino acids 1-117 (N-terminal part) (other)
chain: VNQAPECRFGGGILGPLGKRRDLARASEPRTEGARRAGPQPRPLADPAMDPFLVLLHSVSSSLSSSELTELKFLCLGRVVKRKLERVQSGLDLFSMLLEQNDLEPGHTELLRELLAS
notes: Gal4 fusion in two-hybrid tests; also called MORT-1 head; MORT 'head'
With B1, the binding result in [1] is on record as “no binding”.
For the molecule B2, the binding result in [2], in data set [3], in [4], in [5] and in [7] was “no binding” throughout. For the same molecule, the figures for the “time to development of strong color (beta-galactosidase filter assay, yeast two-hybrid)” value (from here on “time to development of strong color”) (in the data set with MACHβ1 (ORF-B of MACH); in data set [6]) were 30 to 90 min and at most 30 min, respectively.

B3: MACH (construct with the full-length MACH cDNA) (other)
chain: MDFSRNLYDIGEQLDSEDLASLKFLSLDYIPQRKQEPIKDALMLFQRLQEKRMLEESNLSFLKELLFRINRLDLLITYLNTRKEEMERELQTPGRAQISAYRVMLYQISEEVSRSELRSFKFLLQEEISKCKLDDDMNLLDIFIEMEKRVILGEGKLDILKRVCAQINKSLLKIINDYEEFSKERSSSLEGSPDEFSNDFGQSLPNEKQTSGILSDHQQSQFCKSTGESAQTSQH
notes: also called MORT-2
For the molecule B3, the “time to development of strong color” value in data set [8] was at most 30 min.
Consider B4, for which the binding result in the data set “yeast two-hybrid” is recorded as “binds”.
Take B5: the values for the binding result (in the data set with MACHα1 [9]; in [10]; in [11]) were “binds”, “binds” and “no binding”, respectively. Besides, the “time to development of strong color” value in data set [8] is at most 30 min; in data set [6] it was 30 to 90 min.
For B6, the binding result (with MACHα1 [12]; in data set [13]) was “no binding” in each case.
